The supplement of paper PMC9112550, “Optimization of the antimicrobial peptide Bac7 by deep mutational scanning” (BMC Biology, 2022)
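Further: peptides expressed intracellularly from a pBAD plasmid library in pooled LB shake-flask culture, induced with 0.3% L-arabinose, DNA abundance read by NGS, three biological replicates, DESeq2 with apeglm shrinkage.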

Each sequence was assayed on Escherichia coli TOP10 (assay: shrunken log2 fold change of peptide-encoding DNA abundance (4.5 h post-induction vs induction); higher = less antimicrobial activity (less host growth inhibition)). Details: time post-induction: 4.5 h; library: site-saturation at positions 5, 18, 19, 20.
In the case of RRIRKRPPRLPRPRPRPRHVPRP, the “shrunken log2 fold change” value is reported as 0.0906. With RRIRMRPPRLPRPRPRPGTSPRP the “shrunken log2 fold change” value was 0.24. In the case of RRIRKRPPRLPRPRPRPDCSPRP, the “shrunken log2 fold change” value is reported as -0.0754. RRIRLRPPRLPRPRPRPKMAPRP was tested, and the “shrunken log2 fold change” value was 0.259. With RRIRDRPPRLPRPRPRPVVCPRP the “shrunken log2 fold change” value was 0.26. With RRIRHRPPRLPRPRPRPHVYPRP the “shrunken log2 fold change” value was -0.939. RRIRGRPPRLPRPRPRPPLEPRP was tested, and the “shrunken log2 fold change” value was 1.2. With RRIRKRPPRLPRPRPRPYFYPRP the “shrunken log2 fold change” value was -0.274. For RRIRGRPPRLPRPRPRPFEHPRP, the “shrunken log2 fold change” value was 0.212. In the case of RRIRQRPPRLPRPRPRPNVLPRP, the “shrunken log2 fold change” value is reported as -0.0544. For RRIRARPPRLPRPRPRPCAFPRP, the “shrunken log2 fold change” value was 0.303. In the case of RRIRHRPPRLPRPRPRPGCWPRP, the “shrunken log2 fold change” value is reported as 0.434. RRIRLRPPRLPRPRPRPVLKPRP was tested, and the “shrunken log2 fold change” value was 0.0956. With RRIRHRPPRLPRPRPRPTFPPRP the “shrunken log2 fold change” value was 0.145. RRIRNRPPRLPRPRPRPCLVPRP was tested, and the “shrunken log2 fold change” value was 0.0322. RRIRCRPPRLPRPRPRPKTTPRP was tested, and the “shrunken log2 fold change” value was -0.000868. In the case of RRIRVRPPRLPRPRPRPVPIPRP, the “shrunken log2 fold change” value is reported as -0.0742. In the case of RRIRTRPPRLPRPRPRPPILPRP, the “shrunken log2 fold change” value is reported as 0.112. In the case of RRIRKRPPRLPRPRPRPMAGPRP, the “shrunken log2 fold change” value is reported as 0.0722. RRIRSRPPRLPRPRPRPTIYPRP was tested, and the “shrunken log2 fold change” value was -0.405. For RRIRRRPPRLPRPRPRPNMDPRP, the “shrunken log2 fold change” value was -0.442. RRIRVRPPRLPRPRPRPLTLPRP was tested, and the “shrunken log2 fold change” value was -0.416. With RRIRYRPPRLPRPRPRPFVMPRP the “shrunken log2 fold change” value was -1.07. In the case of RRIRIRPPRLPRPRPRPIKNPRP, the “shrunken log2 fold change” value is reported as -0.546. With RRIRPRPPRLPRPRPRPQPFPRP the “shrunken log2 fold change” value was -0.149. With RRIRNRPPRLPRPRPRPHMHPRP the “shrunken log2 fold change” value was -0.582. In the case of RRIRVRPPRLPRPRPRPFWWPRP, the “shrunken log2 fold change” value is reported as 0.343. With RRIRNRPPRLPRPRPRPCMIPRP the “shrunken log2 fold change” value was -0.143. With RRIRQRPPRLPRPRPRPYPHPRP the “shrunken log2 fold change” value was -0.0795. In the case of RRIRSRPPRLPRPRPRPGTLPRP, the “shrunken log2 fold change” value is reported as -0.571. For RRIRTRPPRLPRPRPRPTSAPRP, the “shrunken log2 fold change” value was 0.587. For RRIRGRPPRLPRPRPRPAVFPRP, the “shrunken log2 fold change” value was 0.878. For RRIRPRPPRLPRPRPRPNHVPRP, the “shrunken log2 fold change” value was -0.532. In the case of RRIRHRPPRLPRPRPRPCQIPRP, the “shrunken log2 fold change” value is reported as -0.0122. With RRIRFRPPRLPRPRPRPNQNPRP the “shrunken log2 fold change” value was -0.443. With RRIRMRPPRLPRPRPRPICLPRP the “shrunken log2 fold change” value was -0.322. For RRIRCRPPRLPRPRPRPYVEPRP, the “shrunken log2 fold change” value was -0.942. RRIRYRPPRLPRPRPRPLFYPRP was tested, and the “shrunken log2 fold change” value was -0.335. RRIRDRPPRLPRPRPRPMEQPRP was tested, and the “shrunken log2 fold change” value was -0.164. RRIRYRPPRLPRPRPRPCDAPRP was tested, and the “shrunken log2 fold change” value was -0.255. RRIRKRPPRLPRPRPRPRHHPRP was tested, and the “shrunken log2 fold change” value was 0.476. For RRIRERPPRLPRPRPRPPWTPRP, the “shrunken log2 fold change” value was -0.0555. With RRIRERPPRLPRPRPRPCKHPRP the “shrunken log2 fold change” value was -0.5. For RRIRGRPPRLPRPRPRPYRKPRP, the “shrunken log2 fold change” value was 0.176. RRIRPRPPRLPRPRPRPMEYPRP was tested, and the “shrunken log2 fold change” value was -0.00176. For RRIRPRPPRLPRPRPRPINSPRP, the “shrunken log2 fold change” value was -0.236. In the case of RRIRIRPPRLPRPRPRPNQKPRP, the “shrunken log2 fold change” value is reported as 0.0249. In the case of RRIRWRPPRLPRPRPRPFFWPRP, the “shrunken log2 fold change” value is reported as 1.17. With RRIRGRPPRLPRPRPRPNAVPRP the “shrunken log2 fold change” value was 0.924. RRIRPRPPRLPRPRPRPVSCPRP was tested, and the “shrunken log2 fold change” value was -0.095. In the case of RRIRNRPPRLPRPRPRPCHAPRP, the “shrunken log2 fold change” value is reported as -0.37. For RRIRKRPPRLPRPRPRPWNCPRP, the “shrunken log2 fold change” value was 0.0387. In the case of RRIRGRPPRLPRPRPRPCMQPRP, the “shrunken log2 fold change” value is reported as -0.0315. With RRIRGRPPRLPRPRPRPHMPPRP the “shrunken log2 fold change” value was -0.0535. In the case of RRIRGRPPRLPRPRPRPAVGPRP, the “shrunken log2 fold change” value is reported as 1.77. For RRIRQRPPRLPRPRPRPKWLPRP, the “shrunken log2 fold change” value was 0.0992. RRIRARPPRLPRPRPRPTDLPRP was tested, and the “shrunken log2 fold change” value was 0.274. With RRIRMRPPRLPRPRPRPIFLPRP the “shrunken log2 fold change” value was -0.227. With RRIRVRPPRLPRPRPRPEERPRP the “shrunken log2 fold change” value was -0.194. RRIRMRPPRLPRPRPRPDKFPRP was tested, and the “shrunken log2 fold change” value was 0.194. RRIRVRPPRLPRPRPRPKCCPRP was tested, and the “shrunken log2 fold change” value was -0.0953. In the case of RRIRARPPRLPRPRPRPKSAPRP, the “shrunken log2 fold change” value is reported as 0.709. For RRIRYRPPRLPRPRPRPNVEPRP, the “shrunken log2 fold change” value was -0.155. In the case of RRIRDRPPRLPRPRPRPSMFPRP, the “shrunken log2 fold change” value is reported as -0.144. For RRIRARPPRLPRPRPRPITRPRP, the “shrunken log2 fold change” value was 0.00663. For RRIRERPPRLPRPRPRPEVRPRP, the “shrunken log2 fold change” value was 0.138. For RRIRSRPPRLPRPRPRPTLYPRP, the “shrunken log2 fold change” value was 0.0585. In the case of RRIRYRPPRLPRPRPRPLVRPRP, the “shrunken log2 fold change” value is reported as -0.0244. For RRIRSRPPRLPRPRPRPAPDPRP, the “shrunken log2 fold change” value was 0.369. With RRIRHRPPRLPRPRPRPNFIPRP the “shrunken log2 fold change” value was -0.0658. In the case of RRIRARPPRLPRPRPRPRQFPRP, the “shrunken log2 fold change” value is reported as 0.32. For RRIRCRPPRLPRPRPRPWDGPRP, the “shrunken log2 fold change” value was 0.0877. For RRIRGRPPRLPRPRPRPPCDPRP, the “shrunken log2 fold change” value was 0.734. With RRIRDRPPRLPRPRPRPQHHPRP the “shrunken log2 fold change” value was -0.299. With RRIRWRPPRLPRPRPRPQAAPRP the “shrunken log2 fold change” value was 0.702.
